The text below walks through data of patent publication US20260139049A1.

Like-named read-outs stand apart in the source and are kept apart here.

Test [1] has as its target human CLDN6 (human) (UniProt P56747). Briefly: FACS on HEK293T-CLDN6 cells.
For test [2], the target named is monkey CLDN6 (Cyno CLDN6) (monkey (Cyno)). Briefly: FACS on CHO-K1-Cyno CLDN6 cells.
Test [3] concerns the target mouse CLDN6 (mouse) (UniProt Q9Z262). Nature of the test: FACS on CHO-K1-Mouse CLDN6 cells.
The target in the next test is human CLDN3 (human) (UniProt O15551). Briefly: FACS on 293T-CLDN3 cells, 10 µg/mL.
The target of another test is human CLDN4 (human) (UniProt O14493). Nature of the test: FACS on 293T-CLDN4 cells, 10 µg/mL.
For test [4], the target named is human CLDN6 (human) (UniProt P56747). Briefly: FACS on 293T-CLDN6 cells, 10 µg/mL.
Test [5] concerns the target human CLDN9 (human) (UniProt O95484). Nature of the test: FACS on 293T-CLDN9 cells, 10 µg/mL.
Test [6] concerns the target human CLDN6 (human) (UniProt P56747). Briefly: FACS on 293T-CLDN6 cells, 10 µg/mL. The source holds these as a separate data set.
Test [7] concerns the target human CLDN9 (human) (UniProt O95484). Briefly: FACS on 293T-CLDN9 cells, 10 µg/mL. This is another data set of the same source.
In test [8] the target is human CLDN6 (human) (UniProt P56747). Briefly: FACS on 293T-CLDN6 cells, 10 µg/mL. The source holds these as a separate data set.
For test [9], the target named is human CLDN9 (human) (UniProt O95484). Briefly: FACS on 293T-CLDN9 cells, 10 µg/mL. The source holds these as a separate data set.
Test [10] has as its target human CLDN6 (human) (UniProt P56747). Briefly: FACS on PA-1 tumour cells; target on the cells taken as CLDN6.
For test [11] the target is unchanged. The description is as above. This is another data set of the same source.
Test [12] shares this target. Briefly: FACS on HepG2 tumour cells; target on the cells taken as CLDN6.
Test [13] shares this target. Described as above. The source holds these as a separate data set.
For test [14] the target is unchanged. Nature of the test: ratio of FACS Geom.Mean on 293T-CLDN6 over 293T-CLDN9, 10 µg/mL.
For test [15] the target is unchanged. Nature of the test: FACS on HepG2 tumour cells, 5 µg/mL; target on the cells taken as CLDN6.
For test [16], the target named is mouse CLDN6 (mouse) (UniProt Q9Z262). Briefly: FACS.
The target is the same in test [17]. Briefly: FACS; FIG. 20.

human CLDN6 (human), sequence (P56747 whole entry): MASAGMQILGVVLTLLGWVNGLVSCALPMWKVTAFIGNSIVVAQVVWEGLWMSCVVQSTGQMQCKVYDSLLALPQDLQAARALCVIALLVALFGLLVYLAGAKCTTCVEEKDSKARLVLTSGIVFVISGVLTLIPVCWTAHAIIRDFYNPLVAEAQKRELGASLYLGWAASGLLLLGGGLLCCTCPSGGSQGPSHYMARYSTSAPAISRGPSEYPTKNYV
mouse CLDN6 (mouse), sequence (Q9Z262 whole entry): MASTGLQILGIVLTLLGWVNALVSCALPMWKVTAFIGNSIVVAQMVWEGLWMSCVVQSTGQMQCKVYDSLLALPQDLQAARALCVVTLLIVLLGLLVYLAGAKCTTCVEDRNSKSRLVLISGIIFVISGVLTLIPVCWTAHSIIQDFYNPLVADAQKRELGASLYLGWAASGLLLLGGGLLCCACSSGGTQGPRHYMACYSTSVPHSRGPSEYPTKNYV
human CLDN9 (human), sequence (O95484 whole entry): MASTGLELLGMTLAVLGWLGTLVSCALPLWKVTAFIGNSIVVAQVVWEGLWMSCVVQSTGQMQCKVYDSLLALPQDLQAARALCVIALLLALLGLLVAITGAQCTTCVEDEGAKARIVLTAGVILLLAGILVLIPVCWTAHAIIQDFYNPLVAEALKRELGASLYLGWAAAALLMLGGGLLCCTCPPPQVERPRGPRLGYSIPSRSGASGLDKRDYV
human CLDN3 (human), sequence (O15551 whole entry): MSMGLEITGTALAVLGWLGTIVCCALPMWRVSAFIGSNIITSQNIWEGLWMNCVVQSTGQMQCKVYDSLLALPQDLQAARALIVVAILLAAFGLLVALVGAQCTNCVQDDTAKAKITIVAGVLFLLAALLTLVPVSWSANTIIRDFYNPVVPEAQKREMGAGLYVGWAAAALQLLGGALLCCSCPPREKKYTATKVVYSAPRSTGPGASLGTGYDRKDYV
human CLDN4 (human), sequence (O14493 whole entry): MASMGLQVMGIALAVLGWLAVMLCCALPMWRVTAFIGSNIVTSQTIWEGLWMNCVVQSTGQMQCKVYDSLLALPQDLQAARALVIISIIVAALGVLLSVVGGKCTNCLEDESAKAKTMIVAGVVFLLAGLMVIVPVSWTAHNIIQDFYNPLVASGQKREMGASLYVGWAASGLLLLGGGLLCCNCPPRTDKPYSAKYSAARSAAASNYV

As a reminder, the EC50 is the concentration needed to bring the measured effect to its halfway point. On to Human IgG (antibody), for which the EC50 turned out to be 323 µg/mL with human CLDN6 (human) [1]; 132 µg/mL in test [2]; 78.8 µg/mL in the test with mouse CLDN6 (mouse) [3]; 138000 µg/mL in the test with human CLDN6 (human) [10]; 194 µg/mL in the test with human CLDN6 (human) [11]; 63700 µg/mL with human CLDN6 (human) [12]. The EC50 with human CLDN6 (human) [13] was determined as 77.5 µg/mL. In the test with human CLDN6 (human) [1], this substance came in with an FACS signal of 136. The Geom.Mean was 168 with human CLDN3 (human); 158 with human CLDN4 (human); 196 with human CLDN6 (human) [4]; 119 in the test with human CLDN9 (human) [5]; 163 with human CLDN6 (human) [6]; 79.4 with human CLDN9 (human) [7]. The Geom.Mean with human CLDN6 (human) [8] was determined as 222; with human CLDN9 (human) [9], 295; in the test with human CLDN6 (human) [15], 57.6. Moreover, the CLDN6/CLDN9 ratio in the test with human CLDN6 (human) [14] is 1.6.
Consider IMAB027, for which the EC50 in the test with mouse CLDN6 (mouse) [16] and in the test with mouse CLDN6 (mouse) [17] was 0.332 µg/mL each time.
